# From the Human Domainome abundance scans (Beltran et al. 2025)
# ± gives the uncertainty stated by the source.
# B1: 1-phosphatidylinositol 4,5-bisphosphate phosphodiesterase gamma-2, residues 772 to 827; numbered along this chain, P16885 (parent)
# chain: RTVKALYDYKAKRSDELSFCRGALIHNVSKEPGGWWKGDYGTRIQQYFPSNYVEDI
# B2: Transcriptional repressor p66-beta, residues 415 to 455; numbered along this chain, Q8WXI9 (parent)
# chain: VEPFVCAQCRTDFTPHWKQEKNGKILCEQCMTSNQKKALKA
# Variants of: B1
# Experiment: abundance fitness (aPCA) (normalised: wild type 0, dead -1); higher = more abundant; growth selection in yeast, the domain comes from the species named
# Conditions: Homo sapiens
row,Variant,abundance fitness
1,A5H,-0.976 ± 0.084
2,A5F,-0.895 ± 0.07
3,A5E,-0.908 ± 0.12
4,A5I,-0.903 ± 0.072
5,A5G,-0.868 ± 0.13
6,R1E,-0.056 ± 0.14
7,R1V,0.257 ± 0.36
8,R1Y,0.164 ± 0.061
9,R1I,-0.141 ± 0.32
10,R1C,-0.495 ± 0.38
11,R1W,0.23 ± 0.16
12,R1G,-0.328 ± 0.12
13,R1T,0.417 ± 0.11
14,R1M,-0.07 ± 0.25
15,V3M,-0.017 ± 0.1
16,V3I,-0.689 ± 0.26
17,V3C,-0.267 ± 0.38
18,T2N,-0.587 ± 0.15
19,T2K,-0.207 ± 0.068
20,T2G,-0.578 ± 0.1
21,T2Q,-0.094 ± 0.11
22,T2Y,-0.177 ± 0.4
23,T2C,-0.344 ± 0.2
24,T2L,-0.315 ± 0.1

row,Variant,abundance fitness
1,T2M,-0.241 ± 0.15
2,T2I,-0.111 ± 0.16
3,T2E,-0.279 ± 0.28
4,T2F,-0.702 ± 0.41
5,T2H,-0.603 ± 0.12
6,T2A,-0.287 ± 0.11
7,T2V,0.037 ± 0.06
8,T2W,-0.883 ± 0.29
9,T2S,-0.089 ± 0.085
10,K4C,-0.068 ± 0.11
11,K4Q,-0.148 ± 0.15
12,K4S,-0.514 ± 0.13
13,K4E,-0.216 ± 0.06
14,K4G,-0.782 ± 0.11
15,K4Y,0.019 ± 0.15
16,K4F,-0.393 ± 0.16
17,K4A,-0.259 ± 0.084
18,K4M,-0.127 ± 0.11
19,K4D,-0.809 ± 0.47
20,K4V,0.055 ± 0.07
21,K4T,-0.288 ± 0.13
22,K4R,-0.205 ± 0.053
23,K4I,0.049 ± 0.14
24,K4W,-0.375 ± 0.16

# Variants of: B2
# Experiment: as above
# Conditions: Homo sapiens
row,Variant,abundance fitness
1,K36M,-0.078 ± 0.09
2,K36V,-0.277 ± 0.07
3,K36T,-0.024 ± 0.075
4,K36I,-0.198 ± 0.4
5,K36G,-0.006 ± 0.053
6,K36E,-0.09 ± 0.082
7,K36Q,0.105 ± 0.14
8,K36C,-0.275 ± 0.12
9,K36W,-0.256 ± 0.085
10,K36D,-0.239 ± 0.14
11,K36N,0.14 ± 0.26
12,K36S,-0.113 ± 0.089
13,K36R,-0.168 ± 0.068
14,K36A,-0.062 ± 0.073
15,K36F,-0.324 ± 0.17
16,K36L,-0.329 ± 0.11
17,K36P,-0.242 ± 0.14
18,K40E,0.084 ± 0.089
19,K40H,-0.125 ± 0.25
20,K40L,-0.467 ± 0.12
21,K40N,0.079 ± 0.19
22,K40G,0.06 ± 0.064
23,K40W,-0.393 ± 0.11
24,K40A,-0.025 ± 0.071

row,Variant,abundance fitness
1,K40V,-0.121 ± 0.069
2,K40T,0.071 ± 0.08
3,K40S,-0.073 ± 0.11
4,K40P,0.229 ± 0.24
5,K40C,-0.144 ± 0.15
6,K40R,0.285 ± 0.065
7,K40M,-0.066 ± 0.18
8,K40Q,-0.218 ± 0.23
9,Q35P,-0.223 ± 0.12
10,Q35E,0.025 ± 0.08
11,Q35R,-0.197 ± 0.067
12,Q35L,-0.365 ± 0.1
13,Q35Y,0.116 ± 0.43
14,Q35S,-0.087 ± 0.19
15,Q35A,-0.117 ± 0.063
16,Q35M,-0.157 ± 0.18
17,Q35C,-0.218 ± 0.14
18,Q35D,-0.103 ± 0.1
19,Q35G,-0.152 ± 0.058
20,Q35I,-0.378 ± 0.16
21,Q35T,0.018 ± 0.24
22,Q35K,-0.136 ± 0.26
23,Q35V,-0.339 ± 0.086
24,I25Q,-0.029 ± 0.15

row,Variant,abundance fitness
1,I25C,-0.192 ± 0.12
2,I25L,-0.158 ± 0.083
3,I25P,0.069 ± 0.096
4,I25V,-0.407 ± 0.089
5,I25A,-0.306 ± 0.07
6,I25S,-0.246 ± 0.12
7,I25W,-0.287 ± 0.1
8,I25F,-0.132 ± 0.14
9,I25T,-0.054 ± 0.086
10,I25E,-0.118 ± 0.11
11,I25R,-0.168 ± 0.07
12,I25K,-0.026 ± 0.095
13,I25D,0.714 ± 0.27
14,I25Y,-0.307 ± 0.23
15,I25M,-0.081 ± 0.076
16,S33V,-0.104 ± 0.092
17,S33H,0.121 ± 0.49
18,S33R,-0.122 ± 0.072
19,S33M,0.048 ± 0.088
20,S33L,-0.176 ± 0.089
21,S33A,-0.04 ± 0.072
22,S33E,-0.007 ± 0.086
23,S33P,-0.011 ± 0.17
24,S33C,-0.113 ± 0.2

row,Variant,abundance fitness
1,S33W,-0.379 ± 0.14
2,S33Q,-0.017 ± 0.077
3,S33Y,0.28 ± 0.2
4,S33D,0.002 ± 0.24
5,S33K,-0.222 ± 0.2
6,S33F,-0.919 ± 0.46
7,S33T,-0.01 ± 0.087
8,E28R,-0.343 ± 0.078
9,E28T,0.029 ± 0.17
10,E28N,0.03 ± 0.13
11,E28G,-0.066 ± 0.072
12,E28Q,-0.222 ± 0.12
13,E28W,-0.307 ± 0.096
14,E28H,-0.066 ± 0.29
15,E28F,-0.356 ± 0.21
16,E28I,-0.418 ± 0.13
17,E28Y,-0.16 ± 0.13
18,E28M,-0.159 ± 0.11
19,E28D,0.08 ± 0.17
20,E28L,-0.181 ± 0.086
21,E28C,0.074 ± 0.23
22,E28P,-0.178 ± 0.098
23,E28A,-0.122 ± 0.091
24,E28K,-0.062 ± 0.17

row,Variant,abundance fitness
1,E28S,-0.006 ± 0.087
2,L26I,-0.004 ± 0.2
3,L26M,0.358 ± 0.37
4,L26W,-0.113 ± 0.1
5,L26E,-0.194 ± 0.093
6,L26K,-0.218 ± 0.13
7,L26D,-0.295 ± 0.097
8,L26R,-0.145 ± 0.067
9,L26S,-0.077 ± 0.086
10,L26T,-0.39 ± 0.16
11,L26P,-0.125 ± 0.088
12,L26G,-0.304 ± 0.059
13,L26Q,-0.075 ± 0.11
14,L26F,0.003 ± 0.12
15,L26H,0.12 ± 0.38
16,L26C,-0.075 ± 0.27
17,L26V,-0.196 ± 0.073
18,L26N,-0.411 ± 0.22
19,C30E,-1.11 ± 0.2
20,C30R,-0.84 ± 0.12
21,C30Q,-0.795 ± 0.29
22,C30K,-0.635 ± 0.18
23,C30V,-0.664 ± 0.13
